According to article PMC3962490, “The Yeast Ess1 Prolyl Isomerase Controls Swi6 and Whi5 Nuclear Localization” (G3: Genes|Genomes|Genetics, 2014):

Target: all the peptides, including the phosphorylated CTD peptide
Assay: BLI; Octet RED, 24°; N-terminally biotinylated peptides immobilised on streptavidin biosensors; Ess1 in solution (3, 10, 30 μM); 20 mM Tris-HCl pH 8.0, 1 mg/mL BSA; no-peptide sensor subtracted; apparent dissociation constants (Kapp) from kinetic and equilibrium data, considering only the predominant faster-dissociating signal; for unphosphorylated peptides Kapp estimated from the signal at 30 μM Ess1

- kon: 17500 to 27100 M⁻¹ s⁻¹
B1: Recombinant S. cerevisiae Ess1 protein (enzyme)
chain: MPSDVASRTGLPTPWTVRYSKSKKREYFFNPETKHSQWEEPEGTNKDQLHKHLRDHPVRVRCLHILIKHKDSRRPASHRSENITISKQDATDELKTLITRLDDDSKTNSFEALAKERSDCSSYKRGGDLGWFGRGEMQPSFEDAAFQLKVGEVSDIVESGSGVHVIKRVG
